Measured values taken from paper PMC5014153.

Key:
Test in all cases: EMSA
Conditions in all cases: 25 mM Hepes pH 8.0, 40 mM KCl, 5 mM MgCl2, 1 mM DTT, 1 mM EDTA, 8% glycerol; 50 ng protein, 20 fmol probe; 30 min at 28 C; native PAGE
[1] = molecular target: 6xHis-WRKY18 (Arabidopsis thaliana (Col-0?)) (UniProt Q9C5T4)
[2] = molecular target: T1, 6xHis-WRKY40 (Arabidopsis thaliana (Col-0?)) (UniProt Q9SAH7)
T1 sequence: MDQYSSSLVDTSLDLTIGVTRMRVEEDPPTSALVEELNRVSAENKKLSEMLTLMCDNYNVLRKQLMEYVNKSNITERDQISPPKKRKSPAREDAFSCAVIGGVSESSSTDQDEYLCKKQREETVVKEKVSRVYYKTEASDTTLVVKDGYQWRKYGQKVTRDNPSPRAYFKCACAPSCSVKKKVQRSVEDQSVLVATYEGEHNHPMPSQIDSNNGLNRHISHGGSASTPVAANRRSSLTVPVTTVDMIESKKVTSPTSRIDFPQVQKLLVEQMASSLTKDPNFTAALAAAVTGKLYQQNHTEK

[3] = molecular target: 6xHis-WRKY60 (Arabidopsis thaliana (Col-0?)) (UniProt Q9SK33)
6xHis-WRKY60 (Arabidopsis thaliana (Col-0?)), sequence (Q9SK33 whole entry): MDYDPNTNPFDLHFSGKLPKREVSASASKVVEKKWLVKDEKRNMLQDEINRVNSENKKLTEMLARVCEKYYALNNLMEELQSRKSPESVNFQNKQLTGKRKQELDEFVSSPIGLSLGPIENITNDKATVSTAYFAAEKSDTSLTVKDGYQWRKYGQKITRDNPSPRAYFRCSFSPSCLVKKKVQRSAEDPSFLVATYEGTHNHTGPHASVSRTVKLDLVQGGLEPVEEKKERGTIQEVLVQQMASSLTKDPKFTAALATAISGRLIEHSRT

6xHis-WRKY18 (Arabidopsis thaliana (Col-0?)), sequence (Q9C5T4 whole entry): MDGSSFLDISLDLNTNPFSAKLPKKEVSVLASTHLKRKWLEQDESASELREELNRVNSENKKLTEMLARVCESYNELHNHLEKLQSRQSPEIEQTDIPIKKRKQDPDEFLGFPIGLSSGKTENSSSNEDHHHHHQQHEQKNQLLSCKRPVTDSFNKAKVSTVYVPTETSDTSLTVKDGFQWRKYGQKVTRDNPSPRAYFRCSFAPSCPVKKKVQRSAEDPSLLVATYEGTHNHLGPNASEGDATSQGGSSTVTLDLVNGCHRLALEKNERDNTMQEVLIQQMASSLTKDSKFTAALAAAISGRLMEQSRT

**Q.** How did the binding [1] turn out when “AGTTGTAAAGTTCAGAAGGAAAAGTACTAAAATATGAAGTCAACGACAATCTTTAGAGTCAACCTTCCACTAAGAGTGTTGATTGGTTTGATGAAGCAGTGAAGGCTAGAAACTGAAGCAACTAGGGTTTGGGAAGTTACTGTTTTAACTTGTAACTGTTCGTTTGTTACTTCTTTGGTAAGGAAGTAAAACGGTGTTGTCTTATTGACCCAAAGTCTCCGCGGCTTGCTGAATAATCACAAACCTATTAAATATCC (double strand) [ProCRK5-2]” was run?
**A.** Its binding is “binds”.

**Q.** What about the binding [2] of the same sequence?
**A.** The binding was “binds”.

**Q.** What about the binding [3] of the same sequence?
**A.** The binding was “no binding”.
